Source: a protein production outcome set (Wang et al. 2014)

Experiment: label from the status in PepcDB records

| Sequence | protein production |
| --- | --- |
| IPTCKITLKETFLTSPEELYRVFTTQELVQAFTHAPATLEADRGGKFHMVDGNVSGEFTDLVPEKHIVMKWRFKSWPEGHFATITLTFIDKNGETELCMEGRGIPAPEEERTRQGWQRYYFEGIKQTFGYGA | not failed |
| IQAGILANSFHVKLSDETQMVVKYQNQPFVNGTFGNWQILEAETINGINQILWRNPDIEEVGIWNTDANWNWISSETWSANSLKTLNAEVTFQIDINNDQLIG | failed |
| IQLIVNGQSQLVPSPDSGTDSGTTNDARLNIRQLLEHMGLQGKRIAVERNGEIVPRSQFDQPMLASGDKLEIVVAVGGG | failed |
| IQPTYTSTTRIYVVNQATDNNNLSAQDLQAGTYLANDYKEIITSNDVLSEVIKDEKLNLSEAELSKMVSVNIPTDTRLISISVNAKTGQDAQTLANKVREVASKKIKKVTKVEDVTTLEEAKLPESPSSPNIK | failed |
| IQRSIERALDFRKEVQRLREESDGWFFDIWQPEAVDKAECWPVAPGEDWHGFKDADADHMYLDPVKVTILTPGMDEQGNMDEEGIPAALVAKFLDERGVVVEKTGPYNLLFLFSIGIDKTRAMGLLRGLTEFKRAYDLNLRVKNMLPDLYAEDPDFYRNMRIQDLAQGIH | failed |
| IRHEITSRTSVSVLVNRCNWFCTSPKCSGLTVMGCLCVAMSVAKKDKPTMSVTALINWARPLPPGQQQQPMTPTSPGNMLQPMATPSNLPTVDCSLDIQWLNLEGGFMSPMSPPEMKPDTAMLDGLRDDSTPPPAFKNYPPNHPLSGSKHLCSICGDRASGKHYGVYSCEGCKGFFKRTVRKDLTYACREERNCIIDKRQRNRCQYCRYQKCLACGMKREAVQEERQRAARGTEDAHPSSSVQVQELSIERLLEMESLVADPSEEFQFLRVGPDSNVPPKFRAPVSSLCQIGNKQIAALVVWARDIPHFSQLEMEDQILLIKGSWNELLLFAIAWRSMEFLTEERDGVDGTGNRTTSPPQLMCLMPGMTLHRNSALQAGVGQIFDRVLSELSLKMRTLRVDQAEYVALKAIILLNPDVKGLKNRQEVEVLREKMFLCLDEYCRRSRSSEEGRFAALLLRLPALRSISLKSFEHLFFFHLVADTSIAGYIRDALRNHAPPIDTNMM | not failed |
| IRQAARGDAERGLGRRRLMQALDGMEAGCALLDGRGSLQEASHGLCRLLGRGRADLLGMNVADVCAPEDLSRLNAALACGGRMQRLRLRLMDGDGRAVDCELVLTPQEESMDGAAWLLQAED | failed |
| ITSFIRNRDKLTQAEYLLRLAGEKASLGGWRIELDPPVITWTSETAVIHGMPPDYSPPDVGTAVQFYAPEFREFIMEVFERCVQQGEPFDVICQLQVPDGRRPWIRAIGEAERDAQGKVIVVQGAFQDIS | failed |
| KDAAWLNGWTSYNKVAREIVLAEMANTTILEEGKIVAELRRLLPDKAGLFIGNSMPIRDVDTYFSQIDKKIKMLANRGANGIDGVVSSALGASVVFQPMFLLIGDLSFYHDMNGLLMAKKYKMNLTIVIVNNDGGGIFSFLPQANEPKYFESLFGTSTELDFRFAAAFYDADYHEAKSVDELEEAIDKASYHKGLDIIEVKTNRHENKANHQALWVKIADALKALD | failed |
| KEGVLCLNTKGQITYANSQALKLLGGSLEELYGKTPQHYFTLENTEGKGMGELLERVLCGESTLQEGSGTLYKKERFLAHVEFTLSPIIDKG | failed |
| KEQILSSEQLARKMMLELGDKKQEHLVAIYMDTQNRIIEQRTIFIGTVRRSVAEPREILHYACKNMATSLIIIHNHPSGSPKPSESDLSFTKKIKRSCDHLGIVCLDHIIVGKNKYYSFREEADIL | not failed |
| KFGELREISGNQYVNEVTNAEKDLWVVIHLYRSSVPMCLVVNQHLSVLARKFPETKFVKAIVNSCIEHYHDNCLPTIFVYKNGQIEGKFIGIIECGGINLKLEELEWKLSEVGAIQSDLEEN | not failed |
| KGTLRRITEIAEVSGIEGESIQLNFLYKYDPAKDELIRTEVPSRFIQTLSYHTGLSIEELKWEIEKRRLILDWMIEKGIRRIDEVGYYIKEFYIDEEELLKKIE | failed |
| KKKSIPQPTNALKSFNWSKLPENKLEGTVWTEIDDTKVFKILDLEDLERTFSAYQRQQDFFVNSNSKQKEADAIDDTLSSKLKVKELSVIDGRRAQNCNILLSRLKLSNDEIKRAILTMDEQEDLPKDMLEQLLKFVPEKSDIDLLEEHKHELDRMAKADRFLFEMSRINHYQQRLQSLYFKKKFAERVAEVKPKVEAIRSGSEEVFRSGALKQLLEVVLAFGNYMNKGQRGNAYGFKISSLNKIADTKSSIDKNITLLHYLITIVENKYPSVLNLNEELRDIPQAAKVN | failed |
